Experimental findings from paper PMC11890865 are described below.

Holding throughout (experiment): cryo-EM structure; ZorAB complex co-expressed from one operon and co-purified in LMNG; TBS (100 mM Tris, 150 mM NaCl, 1 mM EDTA, pH 8.0) plus 0.02% LMNG; Quantifoil Au grids, Titan Krios G4 at 300 kV
Test [1] has as its target ZorA II from Sulfuricurvum kujiense DSM 16994 (Zorya type II) (Sulfuricurvum kujiense DSM 16994).
Test [2] has as its target ZorB II from Sulfuricurvum kujiense DSM 16994 (Zorya type II) (Sulfuricurvum kujiense DSM 16994).
Test [3] has as its target ZorA I from Shewanella sp. ANA-3 (Zorya type I) (Shewanella sp. strain ANA-3).
For test [4], the target named is ZorB I from Shewanella sp. ANA-3 (Zorya type I) (Shewanella sp. strain ANA-3).

Usually stoichiometry N stands for the number of molecules, sites or subunits per partner or assembly.

For “ZorA II from Sulfuricurvum kujiense DSM 16994 (Zorya type II) (natural protein)”, the stoichiometry N in test [1] was found to be 5.

In the case of “ZorB II from Sulfuricurvum kujiense DSM 16994 (Zorya type II) (natural protein)”, the stoichiometry N in test [2] amounted to 2.

With “ZorA I from Shewanella sp. ANA-3 (Zorya type I) (natural protein)”, in test [3], the stoichiometry N worked out at 5.

Consider “ZorB I from Shewanella sp. ANA-3 (Zorya type I) (natural protein)”, for which the stoichiometry N in test [4] was determined as 2.
